Reference: paper PMC8733265, “Microscale thermophoresis suggests a new model of regulation of cardiac myosin function via interaction with cardiac myosin-binding protein C” (The Journal of Biological Chemistry, 2021)
Blank lines part the entries; values can stand above or below the molecule they belong to.

B1: recombinant human cardiac myosin tail domain, first 126 amino acids of myosin subfragment-2 (myosin S2Δ) (domain or fragment, UniProt P12883 838-963, looked up)
chain: PLLKSAEREKEMASMKEEFTRLKEALEKSEARRKELEEKMVSLLQEKNDLQLQVQAEQDNLADAEERCDQLIKNKIQLEAKVKEMNERLEDEEEMNAELTAKKRKLEDECSELKRDIDDLELTLAK
modifications: Alexa 647-NHS label where it was the labelled partner; unlabelled where it was titrated
notes: human cardiac (β) myosin heavy chain, first 126 amino acids of subfragment-2; also called myosin tails; source: E. coli BL21(DE3)-RIPL, purified (HisTrapFF, TEV, ion exchange); not shown: His tag, N-terminal, cleaved

Tests used:
[1] = molecular target: bovine β-cardiac myosin S1 (bovine) (UniProt Q9BE39); experiment: MST; Monolith NT.115; 100 nmol/l Alexa647-labelled protein fixed, partner titrated; 20 mmol/l Mops pH 7, 1 mmol/l MgCl2, 50 mmol/l KCl, 1 mmol/l DTT, 0.05% Tween-20
Chain of bovine β-cardiac myosin S1 (bovine) (Q9BE39 whole entry, chain 1 of 2, the tested form may be a part): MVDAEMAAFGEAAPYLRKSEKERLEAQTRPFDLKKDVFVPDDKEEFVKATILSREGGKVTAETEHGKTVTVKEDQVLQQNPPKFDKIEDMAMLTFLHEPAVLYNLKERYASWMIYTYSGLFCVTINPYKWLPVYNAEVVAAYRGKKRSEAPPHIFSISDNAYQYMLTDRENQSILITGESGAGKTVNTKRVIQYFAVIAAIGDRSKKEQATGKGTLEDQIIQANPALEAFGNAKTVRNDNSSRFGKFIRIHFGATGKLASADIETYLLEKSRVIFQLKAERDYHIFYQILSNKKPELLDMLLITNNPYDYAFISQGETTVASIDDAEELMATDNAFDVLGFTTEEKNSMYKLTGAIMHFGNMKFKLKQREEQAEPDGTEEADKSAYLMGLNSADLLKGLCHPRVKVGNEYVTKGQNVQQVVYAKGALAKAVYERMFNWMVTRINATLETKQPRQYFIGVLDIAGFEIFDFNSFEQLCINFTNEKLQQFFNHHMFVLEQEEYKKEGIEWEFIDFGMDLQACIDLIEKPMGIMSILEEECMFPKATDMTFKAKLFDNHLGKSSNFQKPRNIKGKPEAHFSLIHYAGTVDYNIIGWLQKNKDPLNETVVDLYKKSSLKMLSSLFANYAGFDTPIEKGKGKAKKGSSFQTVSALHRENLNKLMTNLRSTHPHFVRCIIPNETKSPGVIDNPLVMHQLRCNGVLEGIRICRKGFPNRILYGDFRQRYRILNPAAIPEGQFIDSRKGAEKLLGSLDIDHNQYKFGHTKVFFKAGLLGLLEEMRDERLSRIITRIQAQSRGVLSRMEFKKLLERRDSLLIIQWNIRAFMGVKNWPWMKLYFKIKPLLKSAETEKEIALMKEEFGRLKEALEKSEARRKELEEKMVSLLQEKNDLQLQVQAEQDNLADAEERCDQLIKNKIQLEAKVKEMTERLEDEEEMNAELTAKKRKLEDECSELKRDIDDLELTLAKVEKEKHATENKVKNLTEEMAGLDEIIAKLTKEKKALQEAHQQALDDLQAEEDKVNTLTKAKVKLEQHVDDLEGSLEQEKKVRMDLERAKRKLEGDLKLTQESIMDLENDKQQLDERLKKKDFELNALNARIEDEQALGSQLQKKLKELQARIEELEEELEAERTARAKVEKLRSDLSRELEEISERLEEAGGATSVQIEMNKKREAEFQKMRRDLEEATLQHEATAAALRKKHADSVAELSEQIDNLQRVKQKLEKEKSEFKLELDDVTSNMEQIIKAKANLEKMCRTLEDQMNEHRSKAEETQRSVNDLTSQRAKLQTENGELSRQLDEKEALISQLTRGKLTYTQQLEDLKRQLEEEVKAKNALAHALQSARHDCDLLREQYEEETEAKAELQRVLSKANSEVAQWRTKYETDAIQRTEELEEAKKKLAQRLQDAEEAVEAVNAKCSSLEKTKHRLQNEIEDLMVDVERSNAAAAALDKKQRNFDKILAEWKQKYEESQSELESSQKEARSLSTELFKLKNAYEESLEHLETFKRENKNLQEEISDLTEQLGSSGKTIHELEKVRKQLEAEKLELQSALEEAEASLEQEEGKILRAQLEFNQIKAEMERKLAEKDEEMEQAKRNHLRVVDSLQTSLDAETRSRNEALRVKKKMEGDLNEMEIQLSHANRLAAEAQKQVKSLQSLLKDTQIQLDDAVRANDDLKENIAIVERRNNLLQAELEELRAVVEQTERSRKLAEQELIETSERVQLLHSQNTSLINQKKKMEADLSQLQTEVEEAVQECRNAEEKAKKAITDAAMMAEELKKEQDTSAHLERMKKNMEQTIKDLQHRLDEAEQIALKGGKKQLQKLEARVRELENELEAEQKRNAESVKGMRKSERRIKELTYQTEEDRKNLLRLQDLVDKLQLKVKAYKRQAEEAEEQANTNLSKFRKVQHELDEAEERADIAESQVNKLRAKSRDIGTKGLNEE
Chain of bovine β-cardiac myosin S1 (bovine) (P85100 whole entry, chain 2 of 2, further chain, the tested form may be a part): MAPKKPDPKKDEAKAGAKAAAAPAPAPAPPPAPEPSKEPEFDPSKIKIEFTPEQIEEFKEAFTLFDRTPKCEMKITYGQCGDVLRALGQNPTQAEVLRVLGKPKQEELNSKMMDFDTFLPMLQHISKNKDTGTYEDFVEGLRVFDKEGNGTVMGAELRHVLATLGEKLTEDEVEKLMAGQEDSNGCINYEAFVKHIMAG

[2] = molecular target: recombinant human cardiac myosin tail domain, first 126 amino acids of myosin subfragment-2 (myosin S2Δ) (human) (UniProt P12883); experiment: as above
[3] = molecular target: cMyBP-C (cardiac myosin-binding protein C) C0C2 (C0-P/A-C1-m-C2) (UniProt Q14896); experiment: microscale thermophoresis titration; conditions: reference: unphosphorylated miniHMM
[4] = molecular target: cMyBP-C (cardiac myosin-binding protein C) C0C2 (C0-P/A-C1-m-C2) (UniProt Q14896); experiment: microscale thermophoresis titration; conditions: reference: unphosphorylated miniHMM; remark: listed apart in the source
[5] = molecular target: bovine β-cardiac myosin S1 myosin S1 (head domain) (UniProt Q9BE39); experiment: microscale thermophoresis titration; conditions: reference: unphosphorylated C0C2
[6] = molecular target: human cardiac myosin tail domain (myosin S2Δ; also the heavy-chain part of miniHMM) miniHMM heavy-chain part containing myosin S2Δ (UniProt P12883); experiment: microscale thermophoresis titration; conditions: reference: unphosphorylated C0C2
[7] = molecular target: human cardiac myosin tail domain (myosin S2Δ; also the heavy-chain part of miniHMM) miniHMM heavy-chain part containing myosin S2Δ (UniProt P12883); experiment: microscale thermophoresis titration; conditions: reference: unphosphorylated C0C2; remark: listed apart in the source
[8] = molecular target: bovine β-cardiac myosin S1 (bovine) (UniProt Q9BE39); experiment: MST; competition: C5C7 titrated into a mixture of Alexa647-labelled myosin S1 and C2C4
[9] = molecular target: T1, bovine β-cardiac myosin S1 (bovine, UniProt Q9BE39 1-1935; P85100 1-199; Q3SZE5 1-166, Alexa 647-NHS label (chain and site not stated)); experiment: MST; Monolith NT.115; 100 nmol/l Alexa647-labelled protein fixed, partner titrated; 20 mmol/l Mops pH 7, 1 mmol/l MgCl2, 50 mmol/l KCl, 1 mmol/l DTT, 0.05% Tween-20
T1 construct: β-cardiac myosin heavy chain (MHC), bovine, the part that lies in subfragment 1; essential light chain (ELC) of bovine cardiac myosin, labelled on the gel of isolated S1; regulatory light chain (RLC) of bovine cardiac myosin, labelled on the gel of isolated S1; the text says that an intact RLC neck region is not present in this S1; Used at 100 nmol/l as the Alexa647-labelled partner in MST; also …
T1 sequence (Q9BE39 whole entry, chain 1 of 2, the tested form may be a part): as the sequence (Q9BE39 whole entry, chain 1 of 2, the tested form may be a part) above
T1 sequence (P85100 whole entry, chain 2 of 2, the tested form may be a part): as the sequence (P85100 whole entry, chain 2 of 2, further chain, the tested form may be a part) above

[10] = molecular target: T2, C0C1 fragment of cMyBP-C (UniProt Q14896 1-258); experiment: as above; conditions: both partners purified
T2 construct: also called C0-P/A-C1; source: E. coli BL21(DE3)-RIPL, purified (HisTrapFF, TEV, ion exchange); not shown: His tag, N-terminal, cleaved
T2 sequence (Q14896 1-258): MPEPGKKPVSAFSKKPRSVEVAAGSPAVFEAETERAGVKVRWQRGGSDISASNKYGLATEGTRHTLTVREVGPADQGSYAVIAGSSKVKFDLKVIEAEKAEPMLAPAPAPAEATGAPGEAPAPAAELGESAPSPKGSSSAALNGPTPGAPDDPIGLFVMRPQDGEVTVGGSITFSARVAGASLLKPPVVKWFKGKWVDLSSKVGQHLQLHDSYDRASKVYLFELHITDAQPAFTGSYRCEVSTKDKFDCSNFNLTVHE

[11] = molecular target: T3, C5C7 segment of cMyBP-C (UniProt Q14896 645-967); experiment: as above; conditions: both partners purified
T3 construct: also called C5–C6–C7; wildtype C5C7; source: E. coli BL21(DE3)-RIPL, purified (HisTrapFF, TEV, ion exchange); not shown: His tag, N-terminal, cleaved
T3 sequence (looked up): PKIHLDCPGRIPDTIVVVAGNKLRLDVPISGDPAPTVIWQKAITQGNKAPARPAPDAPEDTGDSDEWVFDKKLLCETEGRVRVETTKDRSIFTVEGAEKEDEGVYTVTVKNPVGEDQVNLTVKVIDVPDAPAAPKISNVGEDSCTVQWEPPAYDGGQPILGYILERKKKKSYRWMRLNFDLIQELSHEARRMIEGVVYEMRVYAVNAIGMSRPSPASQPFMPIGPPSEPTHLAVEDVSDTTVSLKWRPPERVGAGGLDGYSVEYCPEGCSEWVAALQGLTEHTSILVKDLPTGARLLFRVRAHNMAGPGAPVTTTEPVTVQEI

[12] = molecular target: T4, domain C0 of cMyBP-C (UniProt Q14896 1-101); experiment: as above; conditions: both partners purified
T4 construct: source: E. coli BL21(DE3)-RIPL, purified (HisTrapFF, TEV, ion exchange); not shown: His tag, N-terminal, cleaved
T4 sequence (Q14896 1-101): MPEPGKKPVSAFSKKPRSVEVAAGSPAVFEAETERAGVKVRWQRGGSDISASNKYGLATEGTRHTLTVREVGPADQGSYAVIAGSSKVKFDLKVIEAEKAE

[13] = molecular target: T5, domain C1 of cMyBP-C (UniProt Q14896 151-258); experiment: as above; conditions: both partners purified
T5 construct: source: E. coli BL21(DE3)-RIPL, purified (HisTrapFF, TEV, ion exchange); not shown: His tag, N-terminal, cleaved
T5 sequence (Q14896 151-258): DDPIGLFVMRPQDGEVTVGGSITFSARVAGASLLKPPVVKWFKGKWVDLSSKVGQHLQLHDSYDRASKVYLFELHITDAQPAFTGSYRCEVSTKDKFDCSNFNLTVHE

[14] = molecular target: T6, domain C2 of cMyBP-C (UniProt Q14896 362-452); experiment: as above; conditions: both partners purified
T6 construct: source: E. coli BL21(DE3)-RIPL, purified (HisTrapFF, TEV, ion exchange); not shown: His tag, N-terminal, cleaved
T6 sequence (Q14896 362-452): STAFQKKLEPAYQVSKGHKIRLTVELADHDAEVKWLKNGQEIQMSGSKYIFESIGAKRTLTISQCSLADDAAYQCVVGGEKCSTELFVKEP

[15] = molecular target: T7, C0C2, cMyBP-C spanning domains C0 to C2 (UniProt Q14896 1-452); experiment: as above; conditions: both partners purified
T7 construct: also called N-terminal domains (NTD) of cMyBP-C; C0-P/A-C1-m-C2; source: E. coli BL21(DE3)-RIPL, purified (HisTrapFF, TEV, ion exchange); not shown: His tag, N-terminal, cleaved
T7 sequence (Q14896 1-452): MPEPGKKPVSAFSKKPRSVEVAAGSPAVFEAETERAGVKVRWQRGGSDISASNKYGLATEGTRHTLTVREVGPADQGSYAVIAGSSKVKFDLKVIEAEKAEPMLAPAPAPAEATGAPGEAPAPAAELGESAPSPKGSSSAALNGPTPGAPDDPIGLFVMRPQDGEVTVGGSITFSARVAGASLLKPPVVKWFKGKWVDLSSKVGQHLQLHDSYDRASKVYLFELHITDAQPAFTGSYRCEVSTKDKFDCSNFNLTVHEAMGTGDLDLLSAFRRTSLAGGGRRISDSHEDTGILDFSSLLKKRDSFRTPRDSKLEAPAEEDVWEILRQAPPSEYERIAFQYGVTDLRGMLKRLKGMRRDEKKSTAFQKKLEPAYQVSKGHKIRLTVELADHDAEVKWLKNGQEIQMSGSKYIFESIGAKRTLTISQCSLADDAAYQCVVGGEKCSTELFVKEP

[16] = molecular target: T8, C2C4 segment of cMyBP-C (UniProt Q14896 362-633); experiment: as above; conditions: both partners purified
T8 construct: also called C2–C3–C4; C2C4 module; source: E. coli BL21(DE3)-RIPL, purified (HisTrapFF, TEV, ion exchange); not shown: His tag, N-terminal, cleaved
T8 sequence (Q14896 362-633): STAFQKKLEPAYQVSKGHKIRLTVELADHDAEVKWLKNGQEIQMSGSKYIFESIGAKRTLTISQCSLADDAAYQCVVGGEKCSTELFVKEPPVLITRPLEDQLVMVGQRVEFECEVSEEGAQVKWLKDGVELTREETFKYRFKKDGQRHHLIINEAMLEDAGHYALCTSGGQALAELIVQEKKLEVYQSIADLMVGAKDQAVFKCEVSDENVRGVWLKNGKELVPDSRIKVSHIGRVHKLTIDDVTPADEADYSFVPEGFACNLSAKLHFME

[17] = molecular target: miniHMM, recombinant fragment of human cardiac myosin containing the myosin S2Δ tail domain bound to two RLCs (human), P12883; experiment: MST; as the other MST titrations but pH adjusted to 6.2 for the isolated m-motif; 100 nmol/l Alexa647-labelled protein fixed
[18] = molecular target: T1, bovine β-cardiac myosin S1; experiment: as above; conditions: both partners purified
[19] = molecular target: B1; experiment: as above; conditions: both partners purified

Molecule: C5C7-R820Q (from UniProt Q14896 1-1274) (domain or fragment)
- Kd [1]: 1.3 µM
- Kd [2]: 59.1 µM

Molecule: C2C4 segment of cMyBP-C (from UniProt Q14896 362-633) (domain or fragment)
- Kd [1]: 0.38 µM

Molecule: myosin regulatory light chain (RLC) in miniHMM (from UniProt P10916) cMLCK-phosphorylated miniHMM
- KD [3]: same; reference 3.4 ± 0.1
- KD [4]: stronger; reference 9.7 ± 0.5

Molecule: domain C2 of cMyBP-C (from UniProt Q14896 362-452) (domain or fragment)
- Kd [1]: 42.3 µM

Molecule: C5C7-N755K (from UniProt Q14896 1-1274) (domain or fragment)
- Kd [1]: 0.43 µM
- Kd [2]: 73.9 µM

Molecule: domain C1 of cMyBP-C (from UniProt Q14896 151-258) (domain or fragment)
- Kd [1]: 3.8 µM

Molecule: C5C7 segment of cMyBP-C (from UniProt Q14896 645-967) (domain or fragment)
- EC50 [8]: 3.8 µM
- Kd [1]: 0.77 µM

Molecule: domain C3 of cMyBP-C (from UniProt Q14896 453-543) (domain or fragment)
- Kd [1]: 25 µM

Molecule: domain C4 of cMyBP-C (from UniProt Q14896 544-633) (domain or fragment)
- Kd [1]: 2.5 µM

Molecule: C0C2, cMyBP-C spanning domains C0 to C2 (from UniProt Q14896 1-452) (domain or fragment)
- Kd [1]: 3.4 µM
- Kd [2]: 6.5 µM

Molecule: B1
- Kd [9]: 0.6 µM
- Kd [10]: 199 µM
- Kd [11]: 25.8 µM

B2: miniHMM, recombinant fragment of human cardiac myosin containing the myosin S2Δ tail domain bound to two RLCs (complex)
chain 1: RDSLLVIQWNIRAFMGVKNWPWMKLYFKIKPLLKSAEREKEMASMKEEFTRLKEALEKSEARRKELEEKMVSLLQEKNDLQLQVQAEQDNLADAEERCDQLIKNKIQLEAKVKEMNERLEDEEEMNAELTAKKRKLEDECSELKRDIDDLELTLAK
chain 2: APKKAKKRAGGANSNVFSMFEQTQIQEFKEAFTIMDQNRDGFIDKNDLRDTFAALGRVNVKNEEIDEMIKEAPGPINFTVFLTMFGEKLKGADPEETILNAFKVFDPEGKGVLKADYVREMLTTQAERFSKEEVDQMFAAFPPDVTGNLDYKNLVHIITHGEEKD
modifications: Limits not printed. C-terminus from S2Δ as the first 126 residues of S2 (838-963 by convention). N-terminus taken at the start of the RLC-binding heavy-chain helix (about 808). RLC initiator Met …
- Kd [12]: 335 µM
- Kd [13]: 17 µM
- Kd [14]: 502 µM
- Kd [15]: 3.4 µM
- Kd [10]: 10.3 µM
- Kd [16]: 4.7 µM
- Kd [11]: 3.2 µM

B3: isolated m-motif of cMyBP-C (domain or fragment)
chain: HEAMGTGDLDLLSAFRRTSLAGGGRRISDSHEDTGILDFSSLLKKRDSFRTPRDSKLEAPAEEDVWEILRQAPPSEYERIAFQYGVTDLRGMLKRLKGMRRDEKK
modifications: here or on the partner: Unphosphorylated (bacterial expression). Limits taken as the interval between the annotated C1 (153-256) and C2 (362-452) domains. / Limits not printed. C-terminus from S2Δ as the first 126 residues o
- Kd [17]: 49.7 µM

B4: isolated m-motif of cMyBP-C (domain or fragment)
chain: HEAMGTGDLDLLSAFRRTSLAGGGRRISDSHEDTGILDFSSLLKKRDSFRTPRDSKLEAPAEEDVWEILRQAPPSEYERIAFQYGVTDLRGMLKRLKGMRRDEKK
- Kd [18]: 183 µM
- Kd [19]: 41.4 µM

Second part, the molecule after the results:

- Kd [1]: 0.61 µM
- Kd [2]: 32.6 µM
Molecule: C5C7-R943Q (from UniProt Q14896 1-1274) (domain or fragment)

- Kd [1]: 0.3 µM
Molecule: full-length cardiac myosin-binding protein C (cMyBP-C) (from UniProt Q14896 1-1274) (natural protein)

- Kd [1]: 3.8 µM
Molecule: C0C1 fragment of cMyBP-C (from UniProt Q14896 1-258) (domain or fragment)

- KD [5]: same; reference 3.4 ± 0.3
- KD [6]: weaker; reference 3.4 ± 0.1
- KD [7]: weaker; reference 2.7 ± 0.1
Molecule: cMyBP-C (cardiac myosin-binding protein C) C0C2 (C0-P/A-C1-m-C2) (from UniProt Q14896) PKA tris-phosphorylated C0C2-3P, IEC purified

- Kd [1]: 2.2 µM
Molecule: C0C2-3P, tris-phosphorylated C0C2 (from UniProt Q14896 1-452) (domain or fragment)

- Kd [1]: 0.51 µM
Molecule: C0C2-truncated cMyBP-C (ΔC0C2-cMyBP-C) (from UniProt Q14896 453-1274) (domain or fragment)

- Kd [1]: 91.3 µM
Molecule: domain C0 of cMyBP-C (from UniProt Q14896 1-101) (domain or fragment)
